Target: the molecule itself
Experiment: crystal structure

B1: FasRΔ33, truncated FasR lacking the first 33 amino acids (domain or fragment)
chain: RLPRDERRGQLLVVASDVFVDRGYHAAGMDEIADRAGVSKPVLYQHFSSKLELYLAVLHRHVENLVSGVHQALSTTTDNRQRLHVAVQAFFDFIEHDSQGYRLIFENDFVTEPEVAAQVRVATESCIDAVFALISADSGLDPHRARMIAVGLVGMSVDCARYWLDADKPISKSDAVEGTVQFAWGGLSHVPLTRS
B1 was tested, and the “stoichiometry N” value was 2.
